In patent US20240067734A1 (Hoffmann-La Roche, published 2024):

Tests used:
[1] = molecular target: T1, human NKG2D expressed on cells (human, UniProt P26718 1-216); assay: flow cytometry on NKG2D-positive NK92 cells, anti-human Fc secondary antibody
T1 construct: the cell type is named under assay; also called NKG2D on NK92 cells; HEK293T human NKG2D
T1 chain: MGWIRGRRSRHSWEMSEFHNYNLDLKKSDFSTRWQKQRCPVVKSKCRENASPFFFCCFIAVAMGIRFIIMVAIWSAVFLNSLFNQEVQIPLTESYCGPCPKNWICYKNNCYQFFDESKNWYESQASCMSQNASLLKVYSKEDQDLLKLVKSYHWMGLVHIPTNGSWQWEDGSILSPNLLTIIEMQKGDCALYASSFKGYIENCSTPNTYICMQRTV
Method: Viability of NK92 cells or tumor cells (MKN-45, LS180) was checked and cells were re-suspended and adjusted to a density of 1 mio cells/ml. 100 μl per well of this cell suspension (containing 0.1 mio cells) were seeded into a 96 well round bottom plate. The plate was centrifuged for 4 min at 400×g and the supernatant was removed. Then 40 μl of the diluted antibodies or FACS buffer were added to the cells and incubated for 30 min at 4° C. After the incubation the cells were washed twice with 150 μl FACS buffer per well. […] The cells were incubated for an additional 30 min at 4° C. To remove unbound antibody, the cells were washed again twice with 150 μl per well FACS buffer. To fix the cells, 100 μl of FACS buffer containing 1% PFA were added to the wells. Before measuring, the cells were re-suspended in 150 μl FACS buffer. The fluorescence was measured using a BD flow cytometer.

[2] = molecular target: T1, human NKG2D expressed on cells; assay: flow cytometry; NK92 cells
[3] = molecular target: T2, his avi huNKG2D ECD (human, biotinylated at the avi-tag (in the ELISA)); assay: SPR Biacore T200; antigen captured via anti-His, bispecific analyte
T2 construct: Human NKG2D ECD with N-terminal H6-avi tags, forms non-covalent dimers; also called recombinant human NKG2D
T2 chain: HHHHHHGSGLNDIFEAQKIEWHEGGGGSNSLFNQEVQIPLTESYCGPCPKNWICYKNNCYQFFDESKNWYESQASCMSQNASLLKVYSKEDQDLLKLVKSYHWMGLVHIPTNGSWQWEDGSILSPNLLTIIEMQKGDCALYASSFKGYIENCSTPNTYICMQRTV
Method: (§1) On a CM5 chip, an anti-penta-His capture antibody (Qiagen Penta-His Antibody, BSA-free; #34660) was immobilized by standard amine coupling on flow cells 2 and 3 at approximately 12′000 RU. […] Regeneration at the level of the anti-H6 tag capture antibody was achieved by 2 pulses of 10 mM glycine/HCl pH 2.0 for 60 s. Data were double-referenced against the unimmobilized flow cell 1 and a zero concentration of the analyte. The sensorgrams of the analytes were fitted to a simple 1:1 Langmuir interaction model.

[4] = molecular target: T3, hu N(A2B2)A-avi-His (human); assay: as above
T3 construct: Construct containing the A2 domain of human CEA, with avi and His tags; also called human CEA (A2 domain)
T3 chain: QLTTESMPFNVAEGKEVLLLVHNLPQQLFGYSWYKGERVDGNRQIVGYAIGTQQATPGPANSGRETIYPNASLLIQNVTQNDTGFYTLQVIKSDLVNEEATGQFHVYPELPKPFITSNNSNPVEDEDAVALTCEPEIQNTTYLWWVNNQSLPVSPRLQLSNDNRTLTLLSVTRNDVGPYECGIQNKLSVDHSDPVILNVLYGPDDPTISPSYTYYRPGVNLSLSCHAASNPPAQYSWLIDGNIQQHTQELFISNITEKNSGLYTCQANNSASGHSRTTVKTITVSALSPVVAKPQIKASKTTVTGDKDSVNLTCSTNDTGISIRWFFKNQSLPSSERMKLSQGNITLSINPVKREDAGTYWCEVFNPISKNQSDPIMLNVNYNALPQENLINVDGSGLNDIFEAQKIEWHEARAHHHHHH
Method: as §1

[5] = molecular target: T4, di huNKG2D ECD Fc avi (human, biotinylated at the avi-tag); assay: SPR ProteOn; antigen on NLC chip, Fab analyte
T4 construct: Dimeric fusion of human NKG2D ECD to the C-terminus of an avi-tagged human IgG1 Fc
Method: (§2) This incubation step was repeated once with 25 ml of a 5 mM MgSO₄ solution. The supernatants of both incubation steps were pooled, filtered and loaded on an IMAC column (His[…]™, GE Healthcare). Subsequently, the column was washed with 40 ml washing buffer (500 mM NaCl, 20 mM imidazole, 20 mM NaH2PO₄ pH 7.4). After the elution (500 mM NaCl, 500 mM imidazole, 20 mM NaH₂PO₄ pH 7.4) the eluate was re-buffered using PD10 columns (GE Healthcare).
(§3) Immobilization of recombinant antigens (ligand): Antigens were diluted with PBST (10 mM phosphate, 150 mM sodium chloride pH 7.4, 0.005% TWEEN® (polysorbate) 20) to 10 μg/ml, then injected at 30 μl/minute at varying contact times in vertical orientation for immobilization. […] Buffer (PBST) was injected along the sixth channel to provide an “in-line” blank for referencing. Association rate constants (kₒₙ) and dissociation rate constants (koff) were calculated using a simple one-to-one Langmuir binding model in PROTEON™ Manager v3.1 software by simultaneously fitting the association and dissociation sensorgrams. The equilibrium dissociation constant (KD) was calculated as the ratio koff/kₒₙ. Cross-reactivity of clones 5C5 and 13C6 to cynomolgus NKG2D, i.e. binding to di cyNKG2D ECD Fc avi, was assessed on IgG level (see Example 9).

[6] = molecular target: T5, mono huNKG2D ECD Fc kh avi (human, UniProt P0DOX5 223-449 = IgG part, biotinylated at the avi-tag); assay: SPR ProteOn; antigen on NLC chip, Fab analyte
T5 construct: Monovalent human NKG2D ECD fused to the C-terminus of an avi-tagged human IgG1 Fc knob chain, paired with an empty Fc hole chain
Method: as §2, §3

[7] = molecular target: T6, di muNKG2D ECD Fc avi (murine, biotinylated at the avi-tag); assay: ELISA; biotinylated antigen on streptavidin plate
T6 construct: Dimeric fusion of murine NKG2D ECD to the C-terminus of an avi-tagged human IgG1 Fc; also called recombinant murine NKG2D
Method: Nunc streptavidin coated plates (MicroCoat, #11974998001) were coated with 25 μl/well biotinylated his avi huNKG2D ECD (SEQ ID NO: 93) at a concentration of 0.5 μg/ml and incubated at room temperature (RT) for 1 hour. After washing with 3×90 μl/well PBST-buffer (10×PBS, Roche #11666789001+0.1% TWEEN® (polysorbate) 20), 25 μl anti-NKG2D antibodies were added in 1:3 dilutions starting at a concentration of 3 μg/ml or alternatively with a 1:30 dilution of the original sample and incubated 1 h at RT. After washing (3×90 μl/well PBST-buffer), 25 μl/well anti hu kappa chain HRP (horseradish peroxidase)-conjugate (Millipore, #AP502P, 1:2000) was added and incubated at RT for 1 h. After washing (3×90 μl/well PBST-buffer) 25 μl/well TMB (3,3′,5,5′-tetramethylbenzidine) substrate (Roche, #11835033001) was added.
Nunc streptavidin coated plates (MicroCoat, #11974998001) were coated with 25 μl/well biotinylated di muNKG2D ECD Fc avi (SEQ ID NO: 98) at a concentration of 1 μg/ml and incubated at room temperature (RT) for 1 hour. The assay was performed as described above for human NKG2D.

T6 sequence (chain, as listed by the source limits assumed): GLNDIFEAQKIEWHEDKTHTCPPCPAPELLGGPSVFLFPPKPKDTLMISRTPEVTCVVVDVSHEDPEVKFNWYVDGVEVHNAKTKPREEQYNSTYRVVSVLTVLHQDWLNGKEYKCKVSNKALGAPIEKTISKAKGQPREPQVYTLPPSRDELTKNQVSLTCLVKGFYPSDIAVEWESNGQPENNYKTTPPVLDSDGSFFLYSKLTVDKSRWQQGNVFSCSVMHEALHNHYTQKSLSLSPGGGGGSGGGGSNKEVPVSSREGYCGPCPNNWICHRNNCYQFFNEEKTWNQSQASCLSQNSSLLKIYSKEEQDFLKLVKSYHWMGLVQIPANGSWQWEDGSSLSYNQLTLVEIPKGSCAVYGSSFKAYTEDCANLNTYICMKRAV

B1: NKG2D×CEA bispecific antibody, anti-NKG2D 395 (C50S) / anti-CEA B9, I format (bispecific antibody, V domains shown)
VH 1: QEQLEQSGGGLVTPGGSLKLCCTASGFDFNTFWMTWVRQAPGKGLEWIGSIHGGSGSRDYASWVNGRFTLSRDIDQSTACLQVNSLTAADTAMYYCARPGYRSWSKTFDLWGQGTMVTVSS
VL 1: DIQMTQSPSSLSASVGDRVTITCRASQDISGALNWYQQKPGKAPNLLIYAASSLQSGVPSRFSGSGSGTDYTLTISSLQPEDFATYYCQQANSFPLTFGGGTKVEIK
VH 2: VQLVESGGGLVQPGRSLRLSCAASGFTVSSYWMHWVRQAPGKGLEWVGFIRNKANGGTTEYAASVKGRFTISRDDSKNTLYLQMNSLRAEDTAVYYCARDRGLRFYFDYWGQGTTVTVSS
VL 2: QAVLTQPASLSASPGASASLTCTLRRGINVGAYSIYWYQQKPGSPPQYLLRYKSDSDKQQGSGVSSRFSASKDASANAGILLISGLQSEDEADYYCMIWHSGASAVFGGGTKLTVL
notes: also called bivalent I format
[1]
  EC50 (read off the curve): ~2 nM

B2: NKG2D×CEA bispecific antibody in M format, P1AE4981 / huA5B7 (bispecific antibody, V domains shown)
VH 1: QEQLQESGPGLVKPSETLSLTCTVSGFDFNTFWMTWIRQPPGKGLEWIGSIHGGSGSRDYNPSLKSRVTISVDIDQNQFSLKLSSVTAADTAVYYCARPGYRSWSKTFDLWGQGTTVTVSS
VL 1: DIQMTQSPSSLSASVGDRVTITCRASQDISGALNWYQQKPGKAPNLLIYAASSLQSGVPSRFSGSGSGTDYTLTISSLQPEDFATYYCQQANSFPLTFGGGTKVEIK
VH 2: EVQLLESGGGLVQPGGSLRLSCAASGFTFTDYYMNWVRQAPGKGLEWLGFIGNKANAYTTEYSASVKGRFTISRDKSKNTLYLQMNSLRAEDTATYYCTRDRGLRFYFDYWGQGTTVTVSS
VL 2: EIVLTQSPATLSLSPGERATLSCRASSSVTYIHWYQQKPGQAPRSWIYATSNLASGIPARFSGSGSGTDFTLTISSLEPEDFAVYYCQHWSSKPPTFGQGTKLEIK
[2]
  EC50: 68.2 nM
[3]
  Kd: 46.3 nM
[4]
  Kd: 3.23 nM

B3: NKG2D×CEA bispecific antibody in M format, P1AE4978 / huA5B7 (bispecific antibody, V domains shown)
VH 1: EVQLVESGGGLVQPGGSLRLSCAASGFDFNTFWMTWVRQAPGKGLEWVGSIHGGSGSRDYADSVKGRFTISADIDQSTAYLQMNSLRAEDTAVYYCARPGYRSWSKTFDLWGQGTTVTVSS
VL 1: DIQMTQSPSSLSASVGDRVTITCRASQDISGALNWYQQKPGKAPNLLIYAASSLQSGVPSRFSGSGSGTDYTLTISSLQPEDFATYYCQQANSFPLTFGGGTKVEIK
VH 2: EVQLLESGGGLVQPGGSLRLSCAASGFTFTDYYMNWVRQAPGKGLEWLGFIGNKANAYTTEYSASVKGRFTISRDKSKNTLYLQMNSLRAEDTATYYCTRDRGLRFYFDYWGQGTTVTVSS
VL 2: EIVLTQSPATLSLSPGERATLSCRASSSVTYIHWYQQKPGQAPRSWIYATSNLASGIPARFSGSGSGTDFTLTISSLEPEDFAVYYCQHWSSKPPTFGQGTKLEIK
[2]
  EC50: 35.5 nM
[3]
  Kd: 37.4 nM
[4]
  Kd: 3.84 nM

B4: NKG2D×CEA bispecific antibody in M format, P1AE4979 / huA5B7 (bispecific antibody, V domains shown)
VH 1: QEQLLESGGGLVQPGGSLRLSCAASGFDFNTFWMTWVRQAPGKGLEWVGSIHGGSGSRDYADSVKGRFTISRDIDQSTAYLQMNSLRAEDTAVYYCARPGYRSWSKTFDLWGQGTTVTVSS
VL 1: DIQMTQSPSSLSASVGDRVTITCRASQDISGALNWYQQKPGKAPNLLIYAASSLQSGVPSRFSGSGSGTDYTLTISSLQPEDFATYYCQQANSFPLTFGGGTKVEIK
VH 2: EVQLLESGGGLVQPGGSLRLSCAASGFTFTDYYMNWVRQAPGKGLEWLGFIGNKANAYTTEYSASVKGRFTISRDKSKNTLYLQMNSLRAEDTATYYCTRDRGLRFYFDYWGQGTTVTVSS
VL 2: EIVLTQSPATLSLSPGERATLSCRASSSVTYIHWYQQKPGQAPRSWIYATSNLASGIPARFSGSGSGTDFTLTISSLEPEDFAVYYCQHWSSKPPTFGQGTKLEIK
[2]
  EC50: 13.1 nM
[3]
  Kd: 17.2 nM
[4]
  Kd: 5.13 nM

B5: anti-NKG2D clone 13C6 Fab (Fab, V domains shown)
VH: EVQLVQSGAEVKKPGESLKISCKGSGYSFTSYWIGWVRQMPGKGLEWMGIIYPGDSDTRYSPSFQGQVTISADKSISTAYLQWSSLKASDTAMYYCARLYPVGVYFDYWGQGTLVTVSS
VL: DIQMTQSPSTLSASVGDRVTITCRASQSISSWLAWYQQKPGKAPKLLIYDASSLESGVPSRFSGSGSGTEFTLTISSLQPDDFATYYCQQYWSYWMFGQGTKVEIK
notes: Phage-display Fab purified from E. coli by IMAC (Flag-tagged)
[5]
  Kd: 74 nM
  koff: 0.0007 s⁻¹
  kon: 9500 M⁻¹ s⁻¹
[6]
  Kd: 79 nM
  koff: 0.00096 s⁻¹
  kon: 12000 M⁻¹ s⁻¹

B6: anti-NKG2D antibody clone 014 (antibody, V domains shown)
VH: EVQLLESGGGLVQPGGSLRLSCAASGFTFSSYAMSWVRQAPGKGLEWVSRISDGGGTIYYTDSVKGRFTIARDNSKNTLYLEMKSLRAEDTAVYYCAKHRLYDSIGAYAMDVWGQGTTVAVSS
VL: DIQMTQSPSSLSASVGDRVTITCRASQSISSYLNWYQQKPGKAPKLLIYDASNLETGVPSRFSGSGSGTDFTLTISSLQPEDFATYYCQQANSFPLTFGPGTKVDIK
notes: From transgenic rabbits
[7]
  OD max: 0.1 OD

B7: anti-NKG2D clone 5C5 Fab (Fab, V domains shown)
VH: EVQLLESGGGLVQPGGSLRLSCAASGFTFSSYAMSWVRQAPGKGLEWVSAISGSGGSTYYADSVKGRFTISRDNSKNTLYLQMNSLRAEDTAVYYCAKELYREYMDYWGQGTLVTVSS
VL: SSELTQDPAVSVALGQTVRITCQGDSLRSYYASWYQQKPGQAPVLVIYGKNNRPSGIPDRFSGSSSGNTASLTITGAQAEDEADYYCNSRDSFSIHQNVFGGGTKLTVL
notes: as for B5
[5]
  Kd: 22 nM
  koff: 0.0056 s⁻¹
  kon: 250000 M⁻¹ s⁻¹
[6]
  Kd: 15 nM
  koff: 0.0055 s⁻¹
  kon: 360000 M⁻¹ s⁻¹
